# Experimental data taken from US20240307560A1, “HEPTAMETHINE CARBOCYANINE DYE-DOTA CONJUGATES COMPLEXED WITH LUTETIUM-177, YTTRIUM-90, OR GALLIUM-68, AND THEIR USES FOR IMAGE-GUIDED RADIOTHERAPY” (priority 2020, published 2024).
# Columns and labels:
# in vivo = assay: in vivo; parameters: species or system Balb/C mice; conditions: Balb/C, mouse, iv
# Experimental: DZ-1-Lys-DOTA-^68Ga (50 μCi) probe was injected into the tail vein of Balb/C mice (n=6, each about 20 g of body weight). Approximately 10 μL of blood from the contralateral tail vein was collected in capillary tubes at 2 min, 5 min, 15 min, 30 min, 1 h, 2 h and 4.5 h post probe injection. The capillaries were placed in pre-weighed tubes to measure the weight and radioactivity of the blood withdrawn. Radioactivity from each sample was measured by a gamma counter with radioactivity decay corrected to the time of probe injection, normalized for injected dose and blood weight, and expressed as percentage injected dose per gram blood (FIG. 2). Each animal was i.v. injected 50 μCi of the probe.
# DZ-1-Lys-DOTA-^177Lu (50 μCi) was injected into the tail vein of Balb/C mice (n=6, about 20 g). Approximately 10 μL of blood from the contralateral tail vein was collected in capillary tubes at 2 min, 5 min, 15 min, 30 min, 1 h, 2 h and 6 h post probe injection. The capillaries were placed in pre-weighed tubes to measure the weight and radioactivity of the blood withdrawn. Radioactivity from each sample was measured by a gamma counter with the radioactivity decay corrected to the time of probe injection, normalized for injected dose and blood weight, and expressed as percentage injected dose per gram blood.
# [1] = type: in vitro ADME, Bovine; conditions: for half-life (stability in serum): bovine
# Experimental: DZ-1-Lys-DOTA-^68Ga was incubated with Fetal Bovine Serum (FBS) at 37° C., and the stability of DZ-1-Lys-DOTA-^68Ga was analyzed by radio-TLC with 0.1M citric acid as eluent.
# The % purity is a marker for stability, with a higher purity indicating a higher stability.
# The DZ-1-Lys-DOTA-^177Lu was incubated with Fetal Bovine Serum (FBS) at 37° C., and the probe was analyzed by radio-TLC with 0.1M citric acid as eluent (see FIG. 3). Stability is determined by the percentage of the labeled compound (radiochemical purity).
# The DZ-1-Lys-DOTA-^90Y was incubated with Fetal Bovine Serum (FBS) (V:V=2:1) at 37° C. and the probe was analyzed by radio-TLC with 0.1M citric acid as eluent.
# [2] = test system: MDA-MB-231 breast cancer cells; assay: Cytotoxicity study, CCK-8; conditions: for % cell viability: human
# Experimental: The MDA-MB-231 breast cancer cells were pre-seeded into 96-well plates (10^4 cells/well), and placed in a 37° C., 5% CO2 incubator until the cells were fully attached. Serially diluted DZ-1-Lys-DOTA-^90Y (100 μL) was added to each well (7 concentrations diluted from 20 μCi in half), and 3 replicate wells for each concentration point. After 24 and 48 hours of treatment, the supernatant was discarded, and 10 μL of CCK-8 solution and 100 μL of medium were added to each well. The culture was continued for 1 h in the incubator, and the absorbance of each well at 450 nm was measured with a microplate reader.
# [3] = 50 uCi, total radioactivity, Normalized radioactivity in blood (% ID/g)
smiles,measurement,setting,value
"CC1(C)C(/C=C/C2=C(Cl)C(=C/C=C3/N(CCCCCC(=O)NCCCCC(NC(=O)CN4CCN(CC(=O)O)CCN(CC(=O)O)CCN(CC(=O)O)CC4)C(=O)O)c4ccccc4C3(C)C)/CCC2)=[N+](CCCCS(=O)(=O)[O-])c2ccccc21 (single isomer, unassigned) [DZ-1-Lys-DOTA-177Lu, metal not drawn]",elimination half-life for blood clearance (T1/2),in vivo,15 min
same,Normalized radioactivity in blood (% ID/g),"in vivo; 50 uCi, 2 min",1.26 % ID/g
same,Normalized radioactivity in blood (% ID/g),"in vivo; 50 uCi, 5 min",0.86 % ID/g
same,Normalized radioactivity in blood (% ID/g),"in vivo; 50 uCi, 0.25 h",0.51 % ID/g
same,Normalized radioactivity in blood (% ID/g),"in vivo; 50 uCi, 0.5 h",0.43 % ID/g
same,Normalized radioactivity in blood (% ID/g),"in vivo; 50 uCi, 1 h",0.36 % ID/g
same,Normalized radioactivity in blood (% ID/g),"in vivo; 50 uCi, 2 h",0.34 % ID/g
same,tissue uptake at 6 h,in vivo; [3],0.23 %ID/g
same,retention (radiochemical purity),[1],about 30%
same,half-life (stability in serum),[1],about 700 min
"CC1(C)C(/C=C/C2=C(Cl)C(=C/C=C3/N(CCCCCC(=O)NCCCCC(NC(=O)CN4CCN(CC(=O)O)CCN(CC(=O)O)CCN(CC(=O)O)CC4)C(=O)O)c4ccccc4C3(C)C)/CCC2)=[N+](CCCCS(=O)(=O)[O-])c2ccccc21 (single isomer, unassigned) [DZ-1-Lys-DOTA-68Ga, metal not drawn]",elimination half-life for blood clearance (T1/2),in vivo,30 min
same,Normalized radioactivity in blood (% ID/g),"in vivo; 50 uCi, 0.25 h",1.13 % ID/g
same,Normalized radioactivity in blood (% ID/g),"in vivo; 50 uCi, 0.5 h",0.97 % ID/g
same,Normalized radioactivity in blood (% ID/g),"in vivo; 50 uCi, 1 h",0.80 % ID/g
same,Normalized radioactivity in blood (% ID/g),"in vivo; 50 uCi, 2 h",0.70 % ID/g
same,tissue uptake at 2 min,in vivo; [3],1.83 %ID/g
same,tissue uptake at 5 min,in vivo; [3],1.44 %ID/g
same,tissue uptake at 4.5 h,in vivo; [3],0.5 %ID/g
same,tissue uptake,"in vivo; 50 uCi, total radioactivity, normalized radioactivity in blood (D/g)",~1.8 %ID/g
"CC1(C)C(/C=C/C2=C(Cl)C(=C/C=C3/N(CCCCCC(=O)NCCCCC(NC(=O)CN4CCN(CC(=O)O)CCN(CC(=O)O)CCN(CC(=O)O)CC4)C(=O)O)c4ccccc4C3(C)C)/CCC2)=[N+](CCCCS(=O)(=O)[O-])c2ccccc21 (single isomer, unassigned) [DZ-1-Lys-DOTA-90Y, metal not drawn]",breast cancer cells caused to die,"[2]; 20 μCi, within 48 hours",80%
same,cancer cell killing compared to free 90Y (in words),"[2]; 48 h, 20 microCi",kills MDA-MB-231 triple-negative breast cancer cells more effectively
same,% cell viability,"[2]; 48 h, 0.3125 μCi",43.92%
same,% cell viability,"[2]; 48 h, 0.625 μCi",42.08%
same,% cell viability,"[2]; 48 h, 1.25 μCi",41.50%
same,% cell viability,"[2]; 48 h, 2.5 μCi",39.63%
same,% cell viability,"[2]; 48 h, 5 μCi",35.57%
same,% cell viability,"[2]; 48 h, 10 μCi",35.46%
same,% cell viability,"[2]; 48 h, 20 μCi",19.21%
same,retention (radiochemical purity),[1],about 30%
same,half-life (stability in serum),[1],about 240 min
